Values of other authors as cited in article PMC7962812.

Target: Bax (Homo sapiens) (UniProt Q07812)
Sequence (Q07812 whole entry): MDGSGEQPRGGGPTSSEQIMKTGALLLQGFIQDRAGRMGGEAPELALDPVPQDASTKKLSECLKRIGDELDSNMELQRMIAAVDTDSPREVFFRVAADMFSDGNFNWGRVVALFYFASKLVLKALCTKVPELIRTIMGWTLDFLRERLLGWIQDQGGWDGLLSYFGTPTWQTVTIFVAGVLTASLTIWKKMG

Chain of Bcl-2 (P10415 whole entry): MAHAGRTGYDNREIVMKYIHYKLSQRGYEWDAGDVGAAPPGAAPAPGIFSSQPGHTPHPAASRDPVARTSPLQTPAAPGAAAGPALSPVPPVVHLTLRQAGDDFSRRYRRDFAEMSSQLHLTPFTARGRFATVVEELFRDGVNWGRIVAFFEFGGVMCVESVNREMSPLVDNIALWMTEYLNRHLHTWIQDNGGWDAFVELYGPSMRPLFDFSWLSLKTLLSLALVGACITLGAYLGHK

Kd: 0.0358 µM
Substance: Bcl-2 (from UniProt P10415)
